Test results: patent publication US6846803B1, “Antagonists specific for the corticotropin-releasing factor receptor type 2 (CRFR2)” (priority 1998, dated 2005)
No end group written: not given here.

T1: rCRFR1 (Rattus norvegicus, UniProt P35353)
T1 construct: expressed in transfected cells; host or cells: HEK 293 cells, stably transfected (HEK-rCRFR1)
T1 sequence (P35353 24-415): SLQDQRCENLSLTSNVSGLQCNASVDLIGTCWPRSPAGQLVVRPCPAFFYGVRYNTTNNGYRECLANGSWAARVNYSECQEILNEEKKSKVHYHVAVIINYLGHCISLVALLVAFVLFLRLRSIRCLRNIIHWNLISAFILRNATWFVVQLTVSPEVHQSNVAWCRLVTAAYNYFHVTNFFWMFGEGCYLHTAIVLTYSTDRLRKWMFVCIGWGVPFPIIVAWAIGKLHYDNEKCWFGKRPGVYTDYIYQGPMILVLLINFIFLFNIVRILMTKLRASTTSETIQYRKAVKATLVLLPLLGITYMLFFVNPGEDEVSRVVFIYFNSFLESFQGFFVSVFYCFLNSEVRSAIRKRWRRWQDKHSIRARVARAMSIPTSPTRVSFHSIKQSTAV

T2: rat CRF receptor, type 1 (rCRFR1) (rat, UniProt P35353 24-415)
T2 construct: whole, on cells; cAMP assays on the whole cells; also called HEK-rCRFR1 cells
T2 sequence (looked up): T1 sequence (P35353 24-415)


Assays:
[1] = molecular target: T3, CRFR2α (Mus musculus, UniProt Q60748); conditions: BALB/c mice; brain area exclusively expressing CRF2α-mRNA; cited from earlier work
T3 construct: from tissue; host or cells: lateral septum of BALB/c mice, in vivo
T3 sequence (Q60748 whole entry): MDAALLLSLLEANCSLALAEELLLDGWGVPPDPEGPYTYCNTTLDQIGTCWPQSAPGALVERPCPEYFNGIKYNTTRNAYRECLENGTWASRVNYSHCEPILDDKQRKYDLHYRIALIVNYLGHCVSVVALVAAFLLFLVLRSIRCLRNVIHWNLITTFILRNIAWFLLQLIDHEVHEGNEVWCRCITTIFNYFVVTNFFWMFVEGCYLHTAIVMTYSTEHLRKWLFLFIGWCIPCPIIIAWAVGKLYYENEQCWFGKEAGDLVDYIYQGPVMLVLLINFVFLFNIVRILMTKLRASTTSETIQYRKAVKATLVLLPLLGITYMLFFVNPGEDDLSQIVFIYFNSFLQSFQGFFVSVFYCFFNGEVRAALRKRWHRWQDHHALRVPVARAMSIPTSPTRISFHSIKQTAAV

[2] = molecular target: T1, rCRFR1; assay: cAMP stimulation / inhibition of oCRF-stimulated cAMP production in HEK-rCRFR1 cells; type: cell-based; conditions: HEK-rCRFR1 cells; difference significant
Summary of the method: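 HEK cells expressing rat CRFR1 or mouse CRFR2β were treated with CRF agonists, with or without antagonist at 1 μM or 10 nM, or with antagonist (1 μM) alone. Cells were lysed in 6% TCA (5 min, 100° C.), and cAMP was measured by RIA.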

[3] = molecular target: mouse CRF receptor, type 2β (mCRFR2β) (mouse) (UniProt Q60748); assay: Kd(rCRFR1)/Kd(mCRFR2β) of the peptide normalised to that of astressin; radioligand displacement
[4] = molecular target: T2, rat CRF receptor, type 1 (rCRFR1); assay: radioligand displacement; this end of the range tied by the Kd ratio of Table 3 (220.9/153.6)
Method: (§1) Binding assays were performed in 96-well MultiScreen plates (Millipore, Eschborn, Germany) with GF/B filters (pore size 1.0 μm). […] After incubation (60 min, 23° C.), membrane suspension was aspirated through the plate, followed by two washes with assay buffer (0.2 ml, 23°). Radioactivity of the punched filters was measured with a 1470 WIZARD automatic gamma counter (Berthold, Hannover). […] Statistical analysis was performed with ANOVA, and significant differences between groups were determined by post hoc comparison using the Dunn test.

[5] = molecular target: T2, rat CRF receptor, type 1 (rCRFR1); assay: cell-based or functional assay
[6] = molecular target: T2, rat CRF receptor, type 1 (rCRFR1); assay: displacement of [125I-Tyr0]oCRF from HEK-rCRFR1 membranes
Method: as §1

Row | Molecule | CRF-mediated behavioral effects in the lateral septum [1] | inhibitory potency towards rCRFR1 [2] | Selectivity [3] | fold decrease of binding affinity against antisauvagine-30 (compound 11) [4] | rel. IA (relative intrinsic activity), cAMP production, HEK-rCRFR1 cells [5] | rel. pot. (relative potency), inhibition of oCRF-stimulated cAMP production, HEK-rCRFR1 cells [5] | Kd [6]
1 | CC[C@H](C)[C@H](NC(=O)[C@@H](NC(=O)[C@H](CC(=O)O)NC(=O)[C@H](CC(C)C)NC(=O)[C@H](CC(C)C)NC(=O)[C@H](CC(C)C)NC(=O)[C@H](CCCNC(=N)N)NC(=O)[C@H](CC(N)=O)NC(=O)[C@H](CC(N)=O)NC(=O)[C@H](C)NC(=O)[C@H](C)NC(=O)[C@H](CCC(N)=O)NC(=O)[C@H](CCC(N)=O)NC(=O)[C@H](CCCCN)NC(=O)[C@H](CCC(=O)O)NC(=O)[C@H](CCCCN)NC(=O)[C@H](CCC(=O)O)NC(=O)[C@H](CCC(N)=O)NC(=O)[C@H](CCCCN)NC(=O)[C@H](CCC(=O)O)NC(=O)[C@@H](NC(=O)[C@H](CCC(=O)O)NC(=O)[C@@H](NC(=O)[C@H](CCSC)NC(=O)[C@H](CCCCN)NC(=O)[C@H](CCCNC(=N)N)NC(=O)[C@H](CC(C)C)NC(=O)[C@H](CC(C)C)NC(=O)[C@H](Cc1c[nH]cn1)NC(=O)[C@H](N)Cc1ccccc1)[C@@H](C)CC)[C@@H](C)CC)[C@@H](C)O)C(N)=O [[DPhe^11, His^12]Svg(11-40)] | inhibited | 15 % of the potency of astressin |  |  |  |  | 
2 | YHLLRKMIEIEKQEKEKQQAANNRLLLDTI (ends and bridges not checked, also called compound 18) [[Tyr^11, His^12]Svg(11-40)] |  |  | 31.6 | 1.4 to 5.9 fold | 0.03 relative, oCRF = 1.00 | 0.79 relative, oCRF = 1.00 | 221 nM
